# Measurements from IntAct's records for PubMed 29039417.
# B1: Protein PTHB1 (Homo sapiens), Q3SYG4 (parent)
# chain: MSLFKARDWWSTILGDKEEFDQGCLCLANVDNSGNGQDKIIVGSFMGYLRIFSPHPAKTGDGAQAEDLLLEVDLRDPVLQVEVGKFVSGTEMLHLAVLHSRKLCVYSVSGTLGNVEHGNQCQMKLMYEHNLQRTACNMTYGSFGGVKGRDLICIQSMDGMLMVFEQESYAFGRFLPGFLLPGPLAYSSRTDSFLTVSSCQQVESYKYQVLAFATDADKRQETEQQKLGSGKRLVVDWTLNIGEQALDICIVSFNQSASSVFVLGERNFFCLKDNGQIRFMKKLDWSPSCFLPYCSVSEGTINTLIGNHNNMLHIYQDVTLKWATQLPHIPVAVRVGCLHDLKGVIVTLSDDGHLQCSYLGTDPSLFQAPNVQSRELNYDELDVEMKELQKIIKDVNKSQGVWPMTEREDDLNVSVVVSPNFDSVSQATDVEVGTDLVPSVTVKVTLQNRVILQKAKLSVYVQPPLELTCDQFTFEFMTPDLTRTVSFSVYLKRSYTPSELEGNAVVSYSRPTDRNPDGIPRVIQCKFRLPLKLICLPGQPSKTASHKITIDTNKSPVSLLSLFPGFASQSDDDQVNVMGFHFLGGARITVLASKTSQRYRIQSEQFEDLWLITNELILRLQEYFEKQGVKDFACSFSGSIPLQEYFELIDHHFELRINGEKLEELLSERAVQFRAIQRRLLARFKDKTPAPLQHLDTLLDGTYKQVIALADAVEENQGNLFQSFTRLKSATHLVILLIALWQKLSADQVAILEAAFLPLQEDTQELGWEETVDAAISHLLKTCLSKSSKEQALNLNSQLNIPKDTSQLKKHITLLCDRLSKGGRLCLSTDAAAPQTMVMPGGCTTIPESDLEERSVEQDSTELFTNHRHLTAETPRPEVSPLQGVSE
# partner: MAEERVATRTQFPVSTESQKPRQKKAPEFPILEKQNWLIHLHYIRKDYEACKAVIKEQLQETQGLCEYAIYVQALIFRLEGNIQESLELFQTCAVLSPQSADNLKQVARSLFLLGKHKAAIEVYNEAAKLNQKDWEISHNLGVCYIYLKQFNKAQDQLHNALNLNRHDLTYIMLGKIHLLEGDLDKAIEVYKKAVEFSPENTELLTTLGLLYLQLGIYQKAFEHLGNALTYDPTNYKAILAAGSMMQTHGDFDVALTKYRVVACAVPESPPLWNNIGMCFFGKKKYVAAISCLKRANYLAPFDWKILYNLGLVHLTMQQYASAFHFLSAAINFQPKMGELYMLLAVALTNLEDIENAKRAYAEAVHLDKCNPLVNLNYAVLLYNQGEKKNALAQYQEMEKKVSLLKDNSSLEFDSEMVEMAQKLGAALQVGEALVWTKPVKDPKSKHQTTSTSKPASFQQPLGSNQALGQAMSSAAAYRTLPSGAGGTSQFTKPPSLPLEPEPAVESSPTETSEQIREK
# B2: BBSome complex member BBS2 (Homo sapiens), Q9BXC9 (parent)
# chain: MLLPVFTLKLRHKISPRMVAIGRYDGTHPCLAAATQTGKVFIHNPHTRNQHVSASRVFQSPLESDVSLLSINQAVSCLTAGVLNPELGYDALLVGTQTNLLAYDVYNNSDLFYREVADGANAIVLGTLGDISSPLAIIGGNCALQGFNHEGSDLFWTVTGDNVNSLALCDFDGDGKKELLVGSEDFDIRVFKEDEIVAEMTETEIVTSLCPMYGSRFGYALSNGTVGVYDKTSRYWRIKSKNHAMSIHAFDLNSDGVNELITGWSNGKVDARSDRTGEVIFKDNFSSAIAGVVEGDYRMDGHIQLICCSVDGEIRGYLPGTAEMRGNLMDTSAEQDLIRELSQKKQNLLLELRNYEENAKAELASPLNEADGHRGIIPANTRLHTTLSVSLGNETQTAHTELRISTSNDTIIRAVLIFAEGIFTGESHVVHPSIHNLSSSICIPIVPPKDVPVDLHLKAFVGYRSSTQFHVFESTRQLPRFSMYALTSLDPASEPISYVNFTIAERAQRVVVWLGQNFLLPEDTHIQNAPFQVCFTSLRNGGHLHIKIKLSGEITINTDDIDLAGDIIQSMASFFAIEDLQVEADFPVYFEELRKVLVKVDEYHSVHQKLSADMADHSNLIRSLLVGAEDARLMRDMKTMKSRYMELYDLNRDLLNGYKIRCNNHTELLGNLKAVNQAIQRAGRLRVGKPKNQVITACRDAIRSNNINTLFKIMRVGTASS
# partner: B1 chain
# Variants of: B1
# Settings: with bbs4_human BBS4, Q96RK4
row,Variant,effect of a mutation on the interaction
1,M839A,disrupting interaction strength
2,M839E,disrupting interaction strength
3,M839K,with no effect
4,G841K,with no effect
5,G841A,with no effect
6,G841E,with no effect
7,V856E,with no effect
8,V856K,with no effect
9,V856A,with no effect
10,R854A,with no effect
11,R854K,with no effect
12,R854E,with no effect
13,L851K,with no effect
14,L851A,with no effect
15,L851E,with no effect
16,P840S,disrupting interaction strength
17,P840K,with no effect
18,P840A,disrupting interaction strength
19,P840E,with no effect
20,E853A,with no effect
21,E853K,with no effect
22,T836K,with no effect
23,T836E,with no effect
24,T836A,with no effect
25,S849A,with no effect

row,Variant,effect of a mutation on the interaction
1,S849E,with no effect
2,S849K,with no effect
3,D859A,with no effect
4,D859K,with no effect
5,D859E,with no effect
6,M837K,with no effect
7,M837I,disrupting interaction strength
8,M837A,with no effect
9,M837E,with no effect
10,V838E,disrupting interaction strength
11,V838K,disrupting interaction strength
12,V838A,disrupting interaction strength
13,E857K,with no effect
14,E857A,with no effect
15,Q858A,with no effect
16,Q858K,with no effect
17,Q858E,with no effect
18,S855K,with no effect
19,S855E,with no effect
20,S855A,with no effect
21,D850A,with no effect
22,D850E,with no effect
23,D850K,with no effect
24,P834K,with no effect
25,C843E,with no effect

row,Variant,effect of a mutation on the interaction
1,C843K,with no effect
2,C843A,with no effect
3,I846E,with no effect
4,I846A,with no effect
5,I846K,with no effect
6,G842K,with no effect
7,G842E,with no effect
8,G842A,with no effect
9,Q835E,with no effect
10,Q835K,with no effect
11,Q835M,disrupting interaction strength
12,Q835A,with no effect
13,T845K,with no effect
14,T845A,with no effect
15,T845E,with no effect
16,P847K,with no effect
17,P847E,with no effect
18,P847A,with no effect
19,T844K,with no effect
20,T844A,with no effect
21,T844E,with no effect
22,E848A,with no effect
23,E848K,with no effect
24,E852K,with no effect
25,E852A,with no effect

# Second part, the variant after the results:
row,effect of a mutation on the interaction,Variant
1,with no effect,T861A
2,with no effect,T861E
3,with no effect,T861K
4,with no effect,P881K
5,with no effect,P881A
6,with no effect,P881E
7,with no effect,E862A
8,with no effect,E862K
9,with no effect,T871K
10,with no effect,T871E
11,with no effect,T871A
12,with no effect,V879K
13,with no effect,V879A
14,with no effect,V879E
15,with no effect,S886E
16,with no effect,S886A
17,with no effect,S886K
18,with no effect,H869K
19,with no effect,H869E
20,with no effect,H869A
21,with no effect,L870K
22,with no effect,L870E
23,with no effect,L870A
24,with no effect,R868A
25,with no effect,R868K
26,with no effect,R868E
27,with no effect,L863E

row,effect of a mutation on the interaction,Variant
1,with no effect,L863K
2,with no effect,L863A
3,with no effect,L882E
4,with no effect,L882K
5,with no effect,L882A
6,with no effect,H867K
7,with no effect,H867E
8,with no effect,H867A
9,with no effect,P875A
10,with no effect,P875E
11,with no effect,P875K
12,with no effect,F864K
13,with no effect,F864A
14,with no effect,F864E
15,with no effect,A872E
16,with no effect,A872K
17,with no effect,G884E
18,with no effect,G884A
19,with no effect,G884K
20,with no effect,E878A
21,with no effect,E878K
22,with no effect,Q883E
23,with no effect,Q883K
24,with no effect,Q883A
25,with no effect,E873K
26,with no effect,E873A
27,with no effect,S880E

row,effect of a mutation on the interaction,Variant
1,with no effect,S880K
2,with no effect,S880A
3,with no effect,P877K
4,with no effect,P877A
5,with no effect,P877E
6,with no effect,N866E
7,with no effect,N866A
8,with no effect,N866K
9,with no effect,R876K
10,with no effect,R876A
11,with no effect,R876E
12,with no effect,T874A
13,with no effect,T874E
14,with no effect,T874K
15,with no effect,T865A
16,with no effect,T865E
17,with no effect,T865K
18,with no effect,E887A
19,with no effect,E887K
20,with no effect,S860A
21,with no effect,S860K
22,with no effect,S860E
23,with no effect,V885K
24,with no effect,V885E
25,with no effect,V885A

# Variants of: B2
# Settings: with pthb1_human BBS9, Q3SYG4
row,effect of a mutation on the interaction,Variant
1,with no effect,N327K
2,with no effect,N327E
3,with no effect,N327A
4,with no effect,G688K
5,with no effect,G326A
6,with no effect,G326E
7,with no effect,G326K
8,with no effect,T331A
9,with no effect,R325E
10,with no effect,R325A
11,with no effect,R325K
12,with no effect,D330E
13,with no effect,D330A
14,with no effect,D330K
15,with no effect,M329K
16,with no effect,M329A
17,with no effect,M329E
18,with no effect,L328E
19,with no effect,L328A
20,with no effect,L328K

# Variants of: B2
# Settings: with pthb1_human BBS9, Q3SYG4
# Remark: another data set of the same source
row,effect of a mutation on the interaction,Variant
1,disrupting interaction strength,G688K
2,disrupting interaction strength,I568E
3,disrupting interaction strength,L455E
4,disrupting interaction strength,W513E
5,disrupting interaction strength,S365R

# Variants of: B2
# Settings: with pthb1_human BBS9, Q3SYG4
# Remark: another data set of the same source
row,effect of a mutation on the interaction,Variant
1,with no effect,L455E
2,with no effect,W513E
